Measurements from FireProtDB (doi:10.1021/bi061295h).
Where “and” joins values, the source holds several entries; their conditions need not be identical. Identical values can stand only once.

B1: Alpha-lactalbumin wild type, P00711 (protein)
chain: MMSFVSLLLVGILFHATQAEQLTKCEVFRELKDLKGYGGVSLPEWVCTTFHTSGYDTQAIVQNNDSTEYGLFQINNKIWCKDDQNPHSSNICNISCDKFLDDDLTDDIMCVKKILDKVGINYWLAHKALCSEKLDQWLCEKL
B2: Fatty acid-binding protein, intestinal wild type, P02693 (protein)
chain: MAFDGTWKVDRNENYEKFMEKMGINVVKRKLGAHDNLKLTITQEGNKFTVKESSNFRNIDVVFELGVDFAYSLADGTELTGTWTMEGNKLVGKFKRVDNGKELIAVREISGNELIQTYTYEGVEAKRIFKKE

Details: 25 °C, reversible: Yes, whole UniProt chain shown
[1] = Bos taurus, pH 7.4, GdnHCl, CD, Tris 20 mM
[2] = Rattus norvegicus, pH 7.5, Urea, Fluorescence, Sodium phosphate 20 mM, KCl 100 mM

Protein | denaturant m value [1] | unfolding free energy [1] | denaturant m value (Bos taurus, pH 7.4, GdnHCl, SUPREX, Sodium phosphate 20 mM) | denaturant m value [2] | unfolding free energy [2] | denaturant m value (Rattus norvegicus, pH 7.5, Urea, SUPREX, Sodium phosphate 20 mM, KCl 100 mM)
B1 | 1.4 kcal/mol/M | 12.6 kJ/mol | 1.6 kcal/mol/M |  |  | 
B2 |  |  |  | 1.7 kcal/mol/M | 38.5 kJ/mol | 1 kcal/mol/M and 2.7 kcal/mol/M and 0.9 kcal/mol/M
